Reference: the supplement of paper PMC9170038

System: MS2 coat protein
Assay: apparent KD of MS2 coat protein; designed switch direction (-1 OFF switch, 1 ON switch): -1; higher = weaker reporter binding
Summary of the method: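 The reported apparent KD is a per-design median over clusters, from curve fits of normalised cluster fluorescence. Protein titrations used SNAP-549-labelled MS2 coat protein, doubled from 0.7 or 1.5 nM to 3 µM, in Tris-HCl pH 7.5 buffer with KCl, MgCl2, BSA, DTT, tRNA and Tween-20, with no input, 200 uM small-molecule ligand, or an oligonucleotide input. The RNA switches were transcribed on Illumina chips by stalled E. coli RNA polymerase.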

[1] = input ligand: microRNA oligo, concentration not stated
[2] = Eterna round: R95, input ligand: microRNA oligo, concentration not stated
[3] = Eterna round: R95, input ligand: FMN 200 uM
[4] = Eterna round: R95, input ligand: none

Sequence: AUUGUAUGGGAAGGAUAUAGAAUAUUAUUUUAACAUGAGGAUCACCCAUGUAACCUUAUGUGUAGCUAGAAGGUCCGUUUAUUA [Title] (Eterna round: R96, puzzle: Exclusion NG 2)
- apparent KD of MS2 coat protein [1]: 112 nM

Sequence: AACAGUACAGGAUAUACAUGAGGAUCACCCAUGUGACAAUUAAGUGGCGUACCACAAAGUAGAAGGGUACUGGA [Ruby 86] (Eterna round: R96, puzzle: Exclusion 3)
- apparent KD of MS2 coat protein (input ligand: FMN 200 uM): 206 nM
- apparent KD of MS2 coat protein [1]: 24.3 nM
- apparent KD of MS2 coat protein (input ligand: none): 31 nM

Sequence: CACGAAUUGUGAGGAUAUGUGCGACAAAGUUGCACAGAAGGCACAUGAGGAUCACCCAUGUAAGCUAGGUCGAAAGACCUAGCG [Omei Exc(NG)1 Av1] (Eterna round: R96, puzzle: Exclusion NG 1)
- apparent KD of MS2 coat protein (input ligand: FMN 200 uM): 215 nM
- apparent KD of MS2 coat protein [1]: 22.7 nM
- apparent KD of MS2 coat protein (input ligand: none): 56.4 nM

Sequence: GUGCGUGGCUAGGAUAUUGAGGAAUUUAGUCAGCGAGAAGGAGCCACAUGAGGAUCACCCAUGUGGUGAAGCUC [salish99_ex6_r4_001] (Eterna round: R97, puzzle: Exclusion 6)
- apparent KD of MS2 coat protein (input ligand: FMN 200 uM): 70.2 nM
- apparent KD of MS2 coat protein (input ligand: none): 17.9 nM

Sequence: CAUGUAAGUCGUUGAUCCAACAUGAGGAUCACCCAUGUCACUUUAGCUUUUUGCUCGUCUUAUCCUCCUUUGUUCAC [JR_STOV1_v2_Sub0100] (Eterna round: R97, puzzle: Sensor, turn-off variant 1)
- apparent KD of MS2 coat protein (input ligand: FMN 200 uM): 482 nM
- apparent KD of MS2 coat protein (input ligand: none): 1060 nM

Sequence: GCAUGUCUUAAGGAUAUGCCUAGGCGUGAGCCGGCAGAAGGUAAGACAUGAGGAUCACCCAUGUUUUCCUAAAA [jl-ex6-4.30 ViennaUCT mod] (Eterna round: R97, puzzle: Exclusion 6)
- apparent KD of MS2 coat protein (input ligand: FMN 200 uM): 280 nM
- apparent KD of MS2 coat protein (input ligand: none): 51.2 nM

Sequence: GGAUAGUGAGGAUAUCGAUGUUAGGAGGAUGAGGUAGGAUGCGAGAAGGCACAUGAGGAUCACCCAUGUAUGGU [JR_Exclu4_Sub070] (puzzle: Exclusion 4)
- apparent KD of MS2 coat protein [2]: 38.4 nM

Sequence: GACUUCUCUGAGGAUAUUGCAUCAUACGAUAAAUAAGAAGGCAGAACAUGAGGAUCACCCAUGUGGGUUUCAAG [Bingo-Bango-34] (Eterna round: R97, puzzle: Exclusion 6)
- apparent KD of MS2 coat protein (input ligand: FMN 200 uM): 170 nM
- apparent KD of MS2 coat protein (input ligand: none): 81.4 nM

Sequence: UGUUGUUACGCAGGAUAUGCAUGAGGAUCACCCAUGCAAUUAGAGUUAACAUGAGGAUCACCCAUGUAGAAGGGCGGGUUAACA [pwkr exNG2 2xF5 1xFMN.4] (Eterna round: R96, puzzle: Exclusion NG 2)
- apparent KD of MS2 coat protein (input ligand: FMN 200 uM): 82.2 nM
- apparent KD of MS2 coat protein [1]: 45.8 nM
- apparent KD of MS2 coat protein (input ligand: none): 57.6 nM

Sequence: GCAGCAUAGUCCAAAUAGGACAUACAUGAGGAUCACCCAUGUCAGGAUAUGGUCUGGAUUACAGGCCAGAAGGGACGAAGCUGC [Eli exng3 - 005] (Eterna round: R96, puzzle: Exclusion NG 3)
- apparent KD of MS2 coat protein (input ligand: FMN 200 uM): 18 nM
- apparent KD of MS2 coat protein [1]: 16.4 nM
- apparent KD of MS2 coat protein (input ligand: none): 22.6 nM

Sequence: ACAUGUGUUGUAGGAUAUAGGACACAUGAGGAUCACCCAUGUGGUUUCAUGUCUAACCAAGCGUCCUAGAAGGACGGCAACAUG [Ex NG2 #27] (Eterna round: R96, puzzle: Exclusion NG 2)
- apparent KD of MS2 coat protein (input ligand: FMN 200 uM): 23.4 nM
- apparent KD of MS2 coat protein [1]: 19.4 nM
- apparent KD of MS2 coat protein (input ligand: none): 19.4 nM

Sequence: AGACAGUCAGGAUAUACAUGAGGAUCACCCAUGUUGAGAUGUGAAAGGGCGGGAGUAGGUAGAAGGGACGAGAG [JR_Exclu3_Sub039] (puzzle: Exclusion 3)
- apparent KD of MS2 coat protein [3]: 27.3 nM
- apparent KD of MS2 coat protein [2]: 26.7 nM
- apparent KD of MS2 coat protein [4]: 37.5 nM

Sequence: AGAGUGCUGCGAGGAUAUACAUGAGGAUCACCCAUGUUAUCGUGUGAGGCUUUGCCUCACACGAAGUAGAAGGCGCAGUACUCA [Mat - Exclusion NG 2 - Mod of JL - D100] (Eterna round: R96, puzzle: Exclusion NG 2)
- apparent KD of MS2 coat protein (input ligand: FMN 200 uM): 13.4 nM
- apparent KD of MS2 coat protein [1]: 7.69 nM
- apparent KD of MS2 coat protein (input ligand: none): 14.2 nM

Sequence: AGAAAGGCAGGAUAUCGAUAAUAAAACAUGAGGAUCACCCAUGUGAGGCCGCGUGUAACUCGAGAAGGGCUACACG [Biarquma] (puzzle: Exclusion 5)
- apparent KD of MS2 coat protein [3]: 16.1 nM
- apparent KD of MS2 coat protein [2]: 16.6 nM
- apparent KD of MS2 coat protein [4]: 15.4 nM

Sequence: GUGUUACAUGAGGAUCACCCAUGUGAGGAUAUGAGUCAGUCACGGUGACGUGGCUGACUCAGAAGGCACAAAGG [Mat - Exclusion 1 - JL Mod - D39] (Eterna round: R97, puzzle: Exclusion 1)
- apparent KD of MS2 coat protein (input ligand: FMN 200 uM): 291 nM
- apparent KD of MS2 coat protein (input ligand: none): 93.9 nM

Sequence: UGCGGAAGAGGAUAUACAUUGAAUUUGAUUCAUGUAAAACUACAUGAGGAUCACCCAUGUAGAAGGCUUUCGCU [Mat - Exclusion 2 - JL Mod - D66] (Eterna round: R97, puzzle: Exclusion 2)
- apparent KD of MS2 coat protein (input ligand: FMN 200 uM): 33.7 nM
- apparent KD of MS2 coat protein (input ligand: none): 17.7 nM

Sequence: UAUAUACAUGAGGAUCACCCAUGUAAGGAUAUGCUUUAUUAUUAUUAUUAUUAUUAUUGCAGAAGGUACAUUAU [LRO-Excl01-05] (Eterna round: R97, puzzle: Exclusion 1)
- apparent KD of MS2 coat protein (input ligand: FMN 200 uM): 38.4 nM
- apparent KD of MS2 coat protein (input ligand: none): 33.8 nM

Sequence: GGCUAGUCAGGAUAUACGAACAUGUCAAAAGACGUGAAGGGACAUGAGGAUCACCCAUGUAGAAGGGACUAGCU [salish99_ex2_r3_003] (puzzle: Exclusion 2)
- apparent KD of MS2 coat protein [2]: 27.9 nM

Sequence: GAAUCGACAGGAUAUACAUGAGGAUCACCCAUGUAGUCAGAGAUGAUACCUCAACCUAGUAGAAGGGUCAGCGG [Eternabot (L2) Solution 17] (Eterna round: R97, puzzle: Exclusion 3)
- apparent KD of MS2 coat protein (input ligand: FMN 200 uM): 45.5 nM
- apparent KD of MS2 coat protein (input ligand: none): 25 nM

Sequence: AUAAGUAUAUAGGAUAUCUAGCUGGUAACAGCUAGAGAAGGAUGUACAUGAGGAUCACCCAUGUAAAUCUCAAU [Ex6/12-A2] (Eterna round: R97, puzzle: Exclusion 6)
- apparent KD of MS2 coat protein (input ligand: FMN 200 uM): 15.7 nM
- apparent KD of MS2 coat protein (input ligand: none): 16.1 nM

Sequence: AAUAAUGUAGGAUAUACAUGAGGAUCACCCAUGUCCCACCCGUUACCUAUGACCAUAUGUAGAAGGACAAAUAA [Exy#4] (Eterna round: R97, puzzle: Exclusion 3)
- apparent KD of MS2 coat protein (input ligand: FMN 200 uM): 56.7 nM
- apparent KD of MS2 coat protein (input ligand: none): 67.3 nM

Sequence: AAUGGCUGAGGAUAUACACUCACGUCUAAAAGGUUCAAAUGACAUGAGGAUCACCCAUGUAGAAGGCAGCCCGA [Regeor] (puzzle: Exclusion 2)
- apparent KD of MS2 coat protein [2]: 98.4 nM

Sequence: GCACGGAUUGUAGGAUAUCUGUGCGAUUAGCUCAGAGAAGGACACAUGAGGAUCACCCAUGUUACCUCAAUUAGCCUUCCGUGC [Eli exng1 - 030] (Eterna round: R96, puzzle: Exclusion NG 1)
- apparent KD of MS2 coat protein (input ligand: FMN 200 uM): 21.7 nM
- apparent KD of MS2 coat protein [1]: 14.9 nM
- apparent KD of MS2 coat protein (input ligand: none): 20 nM

Sequence: UCCACGUAAGGAUAUGGUCAUUGUGACUUGAGGAUCACCCAAGUUGUGAGCUUCCGUCACCCAGAAGGUGCAUGGU [Oratin] (Eterna round: R97, puzzle: Exclusion 5)
- apparent KD of MS2 coat protein (input ligand: FMN 200 uM): 216 nM
- apparent KD of MS2 coat protein (input ligand: none): 99.9 nM

Sequence: CAUGAUUGGGAAGGAUAUUGACCUAGUUAGCGCCGAGAAGGUCCCUGUCACAUGAGGAUCACCCAUGUGAAUCUGGUGAAAGAG [Ex NG1 #93] (Eterna round: R96, puzzle: Exclusion NG 1)
- apparent KD of MS2 coat protein (input ligand: FMN 200 uM): 26.1 nM
- apparent KD of MS2 coat protein [1]: 16.6 nM
- apparent KD of MS2 coat protein (input ligand: none): 22.9 nM

Sequence: GUACCCAAAGGAUAUACUUGAGGAUCACCCAAGUAUGUCGCUUGGGCACGGUAAAGGAGUAGAAGGUUGGGAAG [Aedti] (Eterna round: R97, puzzle: Exclusion 3)
- apparent KD of MS2 coat protein (input ligand: FMN 200 uM): 12.5 nM
- apparent KD of MS2 coat protein (input ligand: none): 11.8 nM

Sequence: AGUAACUAUCACGAAAGUGAUAGUUACAAACAGGUGAAAACAUGAGGAUCACCCAUGUCCUCAUUUGCUCGUCUUAU [Sensor 3 - 8] (puzzle: Sensor v3, turn-off variant 2)
- apparent KD of MS2 coat protein [3]: 213 nM
- apparent KD of MS2 coat protein [2]: 64.5 nM
- apparent KD of MS2 coat protein [4]: 240 nM

Sequence: UUUUAACAUGAGGAUCACCCAUGUGAGGAUAUCGAUAUUUUUAUUAAUAUUAAUAAAACGAGAAGGCACAUUUU [JMF 15] (puzzle: Exclusion 1)
- apparent KD of MS2 coat protein [2]: 65.4 nM

Sequence: CCUAUGUGAGGAUAUCACUGGUCUUCUUUUAUUUUUUACAGUGAGAAGGCACAUGAGGAUCACCCAUGUCGGUG [Ex4 - 3 - 49] (Eterna round: R96, puzzle: Exclusion 4)
- apparent KD of MS2 coat protein (input ligand: FMN 200 uM): 98.4 nM
- apparent KD of MS2 coat protein [1]: 115 nM
- apparent KD of MS2 coat protein (input ligand: none): 192 nM

Sequence: GGUCAGAUGGUAGGAUAUCCAUAUCGAGUGACUCUUUCAUAACAUGAGGAUCACCCAUGUCGGUGGGAGAAGGGCCGUACGGCG [salish99_ExNG02_R04_016] (Eterna round: R96, puzzle: Exclusion NG 2)
- apparent KD of MS2 coat protein (input ligand: FMN 200 uM): 38.9 nM
- apparent KD of MS2 coat protein [1]: 23.3 nM
- apparent KD of MS2 coat protein (input ligand: none): 36.6 nM

Sequence: UCGCUCCGUGUAGGAUAUCGCCGUAUGAUGCGGCGAGAAGGACAUGAGGAUCACCCAUGUAUGUUAUUAUCACGCGUGGCGCAA [Design 63] (Eterna round: R96, puzzle: Exclusion NG 1)
- apparent KD of MS2 coat protein (input ligand: FMN 200 uM): 17.4 nM
- apparent KD of MS2 coat protein [1]: 12 nM
- apparent KD of MS2 coat protein (input ligand: none): 16.9 nM
